Measured values from patent US20040121955A1.

Key:
[1] = biological target: VEGF receptors on bovine aortic endothelial cells; test: cell-based or functional assay
[2] = biological target: rPAI-123, P79335
[3] = biological target: rPAI-1Δ23, P79335
Chain of rPAI-1Δ23, P79335 (P79335 whole entry, looked up, stated change not applied): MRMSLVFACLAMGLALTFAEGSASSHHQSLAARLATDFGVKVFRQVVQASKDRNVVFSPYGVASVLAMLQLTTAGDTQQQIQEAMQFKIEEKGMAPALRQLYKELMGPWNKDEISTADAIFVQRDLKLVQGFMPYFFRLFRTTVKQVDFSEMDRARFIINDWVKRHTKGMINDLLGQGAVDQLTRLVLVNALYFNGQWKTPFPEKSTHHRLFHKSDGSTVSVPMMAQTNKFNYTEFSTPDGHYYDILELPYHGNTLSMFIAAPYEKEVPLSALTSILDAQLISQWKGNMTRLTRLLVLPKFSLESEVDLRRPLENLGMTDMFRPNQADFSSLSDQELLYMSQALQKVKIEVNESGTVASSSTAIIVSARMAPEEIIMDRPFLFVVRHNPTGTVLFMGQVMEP

Chain of rPAI-123, P79335 (P79335 whole entry, looked up): as the sequence (P79335 whole entry, looked up, stated change not applied) above

| apoptosis (Annexin V) in rPAI-123-treated BAEC versus PAEC [1] [%] | Molecule | plasminogen cleavage (immunoblot probed for mini-plasminogen) [2] | plasminogen cleavage (immunoblot probed for mini-plasminogen) [3] |
| --- | --- | --- | --- |
| 60 | 125I-VEGF (ligand) | – | – |
| – | plasminogen (protein) EPLDDYVNTQGASLFSVTKKQLGAGSIEECAAKCEEDEEFTCRAFQYHSKEQQCVIMAENRKSSIIIRMRDVVLFEKKVYLSECKTGNGKNYRGTMSKTKNGITCQKWSSTSPHRPRFSPATHPSEGLEENYCRNPDNDPQGPWCYTTDPEKRYDYCDILECEEECMHCSGENYDGKISKTMSGLECQAWDSQSPHAHGYIPSKFPNKNLKKNYCRNPDRELRPWCFTTDPNKRWELCDIPRCTTPPPSSGPTYQCLKGTGENYRGNVAVTVSGHTCQHWSAQTPHTHNRTPENFPCKNLDENYCRNPDGKRAPWCHTTNSQVRWEYCKIPSCDSSPVSTEQLAPTAPPELTPVVQDCYHGDGQSYRGTSSTTTTGKKCQSWSSMTPHRHQKTPENYPNAGLTMNYCRNPDADKGPWCFTTDPSVRWEYCNLKKCSGTEASVVAPPPVVLLPDVETPSEEDCMFGNGKGYRGKRATTVTGTPCQDWAAQEPHRHSIFTPETNPRAGLEKNYCRNPDGDVGGPWCYTTNPRKLYDYCDVPQCAAPSFDCGKPQVEPKKCPGRVVGGCVAHPHSWPWQVSLRTRFGMHFCGGTLISPEWVLTAAHCLEKSPRPSSYKVILGAHQEVNLEPHVQEIEVSRLFLEPTRKDIALLKLSSPAVITDKVIPACLPSPNYVVADRTECFITGWGETQGTFGAGLLKEAQLPVIENKVCNRYEFLNGRVQSTELCAGHLAGGTDSCQGDSGGPLVCFEKDKYILQGVTSWGLGCARPNKPGVYVRVSRFVTWIEGVMRNN | a distinct plasminogen cleavage product near 50 kDa in all reactions containing the rPAI-123 protein (3, 15 and 30 nM) | the rPAI-1?23 protein did not cleave plasminogen, even when increasing concentrations of the recombinant protein were added |
